Data: the supplement of paper PMC9170038

Test system: MS2 coat protein
Assay: apparent KD of MS2 coat protein; designed switch direction (-1 OFF switch, 1 ON switch): 1; higher = weaker reporter binding
Outline: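 The buffer was Tris-HCl pH 7.5 with KCl, MgCl2, BSA, DTT, tRNA and Tween-20. In it, SNAP-549-labelled MS2 coat protein was titrated in doubling steps from 0.7 or 1.5 nM to 3 µM over chip-bound RNA switches transcribed by stalled E. coli RNA polymerase on Illumina chips. Apparent KD is the per-design median over clusters of curve fits to normalised fluorescence.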

[1] = input ligand: microRNA oligo, concentration not stated
[2] = Eterna round: R95, input ligand: FMN 200 uM
[3] = Eterna round: R95, input ligand: microRNA oligo, concentration not stated
[4] = Eterna round: R95, input ligand: none

| Sequence | apparent KD of MS2 coat protein (input ligand: FMN 200 uM) [nM] | apparent KD of MS2 coat protein [1] [nM] | apparent KD of MS2 coat protein (input ligand: none) [nM] | apparent KD of MS2 coat protein [2] [nM] | apparent KD of MS2 coat protein [3] [nM] | apparent KD of MS2 coat protein [4] [nM] |
| --- | --- | --- | --- | --- | --- | --- |
| GUAGCAUACCGAGGAUAUUCAUAUUAACAUGAGGAUCACCCAUGUAUUUAGGCCAAAAGGCCUUGGGAGAAGGCGGAAUGCUAC [Xeonanis - 20 Mod7] (Eterna round: R96, puzzle: Same State NG 2) | 17.5 | 22.3 | 29.4 |  |  |  |
| GGAGCCAGCACCGAGGAUAUUCAUAUUAAAACAUGAGGAUCACCCAUGUAGGCCAGAAGGCCUUGGGAGAAGGCGGAUUGGCUCG [Xeonanis - 10] (puzzle: Same State 2) |  |  |  | 35.3 | 327 | 496 |
| UUAAAACAUGAGGAUCACCCAUGUCAACAAAGUCGAGGAUAUGGGCAAUUAUUAUUAGAACCAGAAGGCGAAUAUU [Mat - Same State 1 - Mod of UCT - D28] (puzzle: Same State 1) |  |  |  | 27.1 | 260 | 289 |
| CGGCGCUGUCGAGAGGAUAUGCGGUGAUGGACAUGAGGAUCACCCAUGUUAGCGAUAGCAUUACGGUAGAAGGCUCUACAGUUGC [Soteed Omei mod 8] (puzzle: Same State 2) |  |  |  | 19.2 | 74.9 | 66.9 |
| GUUACAUGAGGAUCACCCAUGUAUGUGUGGGAGUAAGUGUCUUAGGAUAUCUAGUAUUUAAUUUUAGAGAAGGAAGAUUGUUGU [JMF's solution 69] (Eterna round: R96, puzzle: Same State NG 3) | 128 | 121 | 134 |  |  |  |
| AAUUAACAUGAGGAUCACCCAUGUCGUAUUAUGGGAGGAUAUACGUGGACCGUAGUCCGCGUAGAAGGCCUAAUUA [Mat - Same State 1 - Mod of JL - D21] (Eterna round: R96, puzzle: Same State 1) | 21 | 34.5 | 38.2 |  |  |  |
| AUGCCAAAUCAAGGAUAUGGAUCCUUAUUGGAUCCAGAAGGUGGGACAUGAGGAUCACCCAUGUGGCAGUGGUCUAAUGACCAC [Fiskers NG1ss - 30] (Eterna round: R96, puzzle: Same State NG 1) | 61 | 185 | 281 |  |  |  |
| ACAUGAGAGAUAGGAUAUCAUGUACCUACAUGUGACAUGAGGAUCACCCAUGUGGUAAGUAUGAGUGAGAAGGAUCAGAUAUGU [Equivalence 35 - Jieux - Same State NG 2] (Eterna round: R96, puzzle: Same State NG 2) | 47.9 | 272 | 467 |  |  |  |
| GAGUGGAGGAAAGGAUAUACAAUGAUAAUCACAGUAGAAGGUUCUAACAUGAGGAUCACCCAUGUAGGACUAUACCAGAGAGGG [Parity 46 - Jieux - Same State NG 1] (Eterna round: R96, puzzle: Same State NG 1) |  | 11.4 |  |  |  |  |
| GAUUAACAUGAGGAUCACCCAUGUCGUUUAAUGGGAGGAUAUACGUGGACCGUAGUCCGCGUAGAAGGCCUAAUUG [JL-ss1-3.22 janelle mod] (Eterna round: R96, puzzle: Same State 1) | 31.5 | 48.3 | 77.4 |  |  |  |
| AUAACACCGGCAGGAUAUGGGAAAGGAAGUGUACCAGAAGGGCCGGAACGGCGAUGGACAUGAGGAUCACCCAUGUCUUAGCCU [PowerStrip SSNG 1.24] (Eterna round: R96, puzzle: Same State NG 1) | 13.7 | 11.6 | 17.3 |  |  |  |
| UCGGGCGUACUUGCUGACAUGAGGAUCACCCAUGUGAUUGGGCAGGAUAUGGUUCCGUUUCGGUUCCAGAAGGUCCUCGGUGCU [salish99_SSNG3_r04_315] (Eterna round: R96, puzzle: Same State NG 3) | 593 | 230 | 347 |  |  |  |
| AUAAAACAUGAGGAUCACCCAUGUAAUCGCCAGACAGGAUAUAUAGUGGCAUUUGCAGGGAUAGAAGGGUCGUGGC [Lerainxege] (puzzle: Same State 1) |  |  |  | 15.6 | 35.1 | 37 |
| GCGGCGGCACGGCAGGAUAUGAUAAAACCUACAUGAGGAUCACCCAUGUCGGCGGGUUGCAAAAUUCAGAAGGGCCCUGUAGGCC [Leorzaonis] (puzzle: Same State 2) |  |  |  | 16.6 | 34.6 | 38.6 |
| AGUCCAGCCUAAGCUGGACAAAAGCAUGUACAUGAGGAUCACCCAUGUUCAUGUACAAGCUUUUUGCAAGUCAAAAU [Mat - hsa-mir-208a - Mod of JL - 79] (Eterna round: R96, puzzle: Sensor for hsa-mir-208a) | 837 | 19.1 | 725 |  |  |  |
| GCUCGACUGAUGGCCUACAUGAGGAUCACCCAUGUGACUGGGCAGGAUAUCUAGAUGCAGGAUGUAGAGAAGGGCCUGUCGAGC [SameState NG3 #43] (Eterna round: R96, puzzle: Same State NG 3) | 589 | 201 | 426 |  |  |  |
| CGUCGUUUGAUAGGAUAUCGCUUUACAUGAGGAUCACCCAUGUUUACCUCGCUGGUUUUUCUUUCCGAGAAGGAUUCUGAUGUU [salish99_SSNG02_r04_030] (Eterna round: R96, puzzle: Same State NG 2) | 43.4 | 31.6 | 40.4 |  |  |  |
| AGAUCAUGACGAGGAUAUCCGACAUGAGGAUCACCCAUGUAUGUCGGAGGACGCGUACGUCCAAUGGAGAAGGCGUCGUGGUCA [JL SSNG2 1.03] (Eterna round: R96, puzzle: Same State NG 2) | 18.2 | 73.7 | 82.5 |  |  |  |
| UGUCCAGCCUGAGCUGGACAAAAGCAUGUACAUGAGGAUCACCCAUGUUCAUGUACAAGCUUUUUGCUCGUCUUAGG [salish99_208a_r3_066] (puzzle: Sensor for hsa-mir-208a) |  |  |  | 695 | 19.2 | 506 |
| UAGGAACAUGAGGAUCACCCAUGUACCUCAUAUGGAGAAACACAGGAUAUGCUGAGGGAAACACAGCAGAAGGGUGAAGAGAGG [Default title] (Eterna round: R96, puzzle: Same State NG 3) | 22.7 | 27.1 | 32.8 |  |  |  |
| AAUUAUUAACAUGAGGAUCACCCAUGUAAAACAUGGAUUAACAAGCCUUUUCGUUUUUGCUCGUCUUAUAUUAUUAA [Bojan's Design] (puzzle: Sensor for hsa-mir-208a version 2) |  |  |  | 167 |  | 199 |
| GGUCGGACAUGAGGAUCACCCAUGUGGUGACCGGAAACGGCAUAGGAUAUCUGUCCGAAAAGGUCAGAGAAGGGUGAACCGACC [Fiskers NG3ss - 69] (Eterna round: R96, puzzle: Same State NG 3) | 160 | 15.5 | 126 |  |  |  |
| UUUACUUUCAUAGGAUAUCAUGCGAAAAUUGCGUGAGAAGGGUGAACACUGUCUUUCUAAGAGUACAUGAGGAUCACCCAUGUA [SameState NG1 #65] (Eterna round: R96, puzzle: Same State NG 1) | 113 | 102 | 131 |  |  |  |
